The text below walks through data of the RNAGym collection of RNA variant scans (doi:10.1073/pnas.2313332121).

This sample holds only a part of the variants without activity. Where only a bound is given, the exact number is not on record here.

The labels stand for the following.
B1: TPR 5TU (parent)
chain: GGAUCUUCUCGAUCUAACAAAAAAGACAAAUCUGCCACAAAGCUUGAGAGCAUCUUCGGAUGCAGAGGCGGCAGCCUUCGGUGGCGCGAUAGCGCCAACGUUCUCAACUAUGACACGCAAAACGCGUGCUCCGUUGAAUGGAGUUUAUCAUG

The variants in this data set derive from B1. Kind of data set: polymerase ribozyme fitness, log enrichment relative to wild type (log ratio); higher = more active; in vitro selection for triplet polymerase activity. The procedure, abridged: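 After PCR construction and transcription, each subunit's mutant library from a heterodimeric triplet polymerase ribozyme was annealed with a biotinylated primer, the partner subunit and triplets. Incubation was frozen, at −7 °C, and extended constructs were gel-excised, bound to streptavidin beads and amplified by RT-PCR, in one selection round done in triplicate. Fitness is the logarithm of a genotype's enrichment divided by that of the wild type, from inverse-variance-weighted replicate averages of Illumina-sequenced inputs and outputs. The base of the logarithm is 2, and genotypes needed ≥10 input reads and ≥1 read per output.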
Regarding C36U C93U C96G C114G C116A A138C U139G U148C G152A, the “polymerase ribozyme fitness (log ratio)” value was -4.1.

Consider C38A U53A C87U, for which the “polymerase ribozyme fitness (log ratio)” value was -1.39.

For C36U U55G C118G, the “polymerase ribozyme fitness (log ratio)” value was -1.72.

For C38A G70A C85G U127C, the “polymerase ribozyme fitness (log ratio)” value is at most -4.2.

Turning to A37C A52U C132U, the “polymerase ribozyme fitness (log ratio)” value was -4.13.

For the variant C38U A47G U53A G141C, the “polymerase ribozyme fitness (log ratio)” value is -2.86.

As to C38G G68C C85G G126A U139G G140A C149G, the “polymerase ribozyme fitness (log ratio)” value was at most -4.2.

Regarding A37G C93U C116G, the “polymerase ribozyme fitness (log ratio)” value was -2.65.

On to A37G C72U A97G U102G C118U, for which the “polymerase ribozyme fitness (log ratio)” value was at most -4.2.

C38U A73U C87U C96A A122G U145A: the “polymerase ribozyme fitness (log ratio)” value was -2.54.

Take A39G A47G G83A A142G: the “polymerase ribozyme fitness (log ratio)” value was at most -4.2.

As for C38A C51U C95A C131A, the “polymerase ribozyme fitness (log ratio)” value is -3.34.

For A37C A52G, the “polymerase ribozyme fitness (log ratio)” value is -0.00493.

As for C38U C85U A107U C125G A147C, the “polymerase ribozyme fitness (log ratio)” value is at most -4.2.

Take A37C A40G A52U A60G G70C G86U A119C: the “polymerase ribozyme fitness (log ratio)” value was at most -4.2.

Regarding A37C U55A, the “polymerase ribozyme fitness (log ratio)” value stood at 0.0873.

Turning to C38U G42A C75G A91G C95U C105U A113U C118G, the “polymerase ribozyme fitness (log ratio)” value is at most -4.2.

In the case of C36U A60G C87A G88C G141C, the “polymerase ribozyme fitness (log ratio)” value is at most -4.2.

Turning to C38U C149U, the “polymerase ribozyme fitness (log ratio)” value is -2.71.

As to C38G U55A C96A A150G, the “polymerase ribozyme fitness (log ratio)” value is -2.63.

In the case of A37C C72G C79A, the “polymerase ribozyme fitness (log ratio)” value is at most -4.2.

On to C38A G94A, for which the “polymerase ribozyme fitness (log ratio)” value was -0.134.

Turning to A37G C85U G88C C95U, the “polymerase ribozyme fitness (log ratio)” value was at most -4.2.

Take A39G C103G U144A: the “polymerase ribozyme fitness (log ratio)” value is at most -4.2.

As for C36U A49U U82A A107C G133C, the “polymerase ribozyme fitness (log ratio)” value is at most -4.2.

Regarding A39U A91U, the “polymerase ribozyme fitness (log ratio)” value was at most -4.2.

On to C36U G62A A91C C96G A113U, for which the “polymerase ribozyme fitness (log ratio)” value is at most -4.2.

In the case of C38A U90A G92A C103G G117U A138G, the “polymerase ribozyme fitness (log ratio)” value was at most -4.2.

Regarding A37C A41U C93U C118A, the “polymerase ribozyme fitness (log ratio)” value was -2.93.

On to C38U G59C G81C C95G C116G, for which the “polymerase ribozyme fitness (log ratio)” value is -1.71.

C38A C95A U135A: the “polymerase ribozyme fitness (log ratio)” value was -1.76.

Regarding A39G G84U U127A, the “polymerase ribozyme fitness (log ratio)” value was at most -4.2.

Take A37U U55A A91G A98U U148A: the “polymerase ribozyme fitness (log ratio)” value was at most -4.2.

Regarding C38A G83U C96G U144A, the “polymerase ribozyme fitness (log ratio)” value is -0.619.

Consider A39G U55G G83C G88C G100C G140U G141A U145G, for which the “polymerase ribozyme fitness (log ratio)” value was at most -4.2.

Take A37G C93G A97C C116A: the “polymerase ribozyme fitness (log ratio)” value is at most -4.2.

For the variant A39G C87A C108U U135C, the “polymerase ribozyme fitness (log ratio)” value was at most -4.2.

In the case of C38U U82A U144A C149G, the “polymerase ribozyme fitness (log ratio)” value is at most -4.2.

With A39U G126C, the “polymerase ribozyme fitness (log ratio)” value is -0.865.

In the case of A37G C54U, the “polymerase ribozyme fitness (log ratio)” value was -2.05.

With C38A C85A, the “polymerase ribozyme fitness (log ratio)” value is -2.61.

Turning to C36U G81A C95G C96A C99U C149G, the “polymerase ribozyme fitness (log ratio)” value was at most -4.2.

For C38U C93U, the “polymerase ribozyme fitness (log ratio)” value is -1.06.

In the case of C38U C149U A150U, the “polymerase ribozyme fitness (log ratio)” value is -1.23.

As for A37C G70C C87A C125U, the “polymerase ribozyme fitness (log ratio)” value is at most -4.2.

With C38U C63G A97U G143C, the “polymerase ribozyme fitness (log ratio)” value was -3.67.

On to C38A A91G, for which the “polymerase ribozyme fitness (log ratio)” value is -3.39.

In the case of A37U A40C G68C G86U C95U G136A A137C, the “polymerase ribozyme fitness (log ratio)” value was at most -4.2.

Take C38G G86U C118U: the “polymerase ribozyme fitness (log ratio)” value was -2.

Take C36U C51G C76G G81C A107G G143A: the “polymerase ribozyme fitness (log ratio)” value was at most -4.2.

With A39C G68A A89G G128U A138G, the “polymerase ribozyme fitness (log ratio)” value is at most -4.2.

Take A39C U44C C93U C108G A121C U139G: the “polymerase ribozyme fitness (log ratio)” value was at most -4.2.

As for A37U G42C, the “polymerase ribozyme fitness (log ratio)” value is -3.9.

In the case of A39C C93U, the “polymerase ribozyme fitness (log ratio)” value is -3.4.

Take C38G C85G C105U A121U G124A: the “polymerase ribozyme fitness (log ratio)” value was -2.25.

As to C38U A66G G92U C108A G136U, the “polymerase ribozyme fitness (log ratio)” value is at most -4.2.

With A37U A113U C116U G136C, the “polymerase ribozyme fitness (log ratio)” value was at most -4.2.

With A39C G58C A97U A98C C125U, the “polymerase ribozyme fitness (log ratio)” value is -3.95.

For A37C G80A G86A, the “polymerase ribozyme fitness (log ratio)” value is -2.42.

For the variant C38U C95G, the “polymerase ribozyme fitness (log ratio)” value was -1.3.

Consider C38U A52C A120U, for which the “polymerase ribozyme fitness (log ratio)” value is -1.22.

For the variant C38A U56A G128U, the “polymerase ribozyme fitness (log ratio)” value is -3.69.

As for A39U A52G C79G G84C C108U, the “polymerase ribozyme fitness (log ratio)” value is at most -4.2.

Regarding C36U A37U A73G A91U C149U G152U, the “polymerase ribozyme fitness (log ratio)” value is at most -4.2.

Turning to A39C C54G G58C G117U G124U U134C, the “polymerase ribozyme fitness (log ratio)” value was at most -4.2.

Turning to A37C A52C U53A G92A, the “polymerase ribozyme fitness (log ratio)” value is at most -4.2.

A37U C51U A97C: the “polymerase ribozyme fitness (log ratio)” value was -2.02.

On to C36U C93A G117U, for which the “polymerase ribozyme fitness (log ratio)” value is -3.25.

C38U C95A C103U G143A: the “polymerase ribozyme fitness (log ratio)” value is -3.18.

On to C38G A49C C76G C93U C125A U135A G143C U144A, for which the “polymerase ribozyme fitness (log ratio)” value was at most -4.2.

Consider A39U C43U U61A U135G G136A, for which the “polymerase ribozyme fitness (log ratio)” value was at most -4.2.

On to C38A C95G C99U A138G, for which the “polymerase ribozyme fitness (log ratio)” value was at most -4.2.

As to A39G A49U U55A U56A A91U, the “polymerase ribozyme fitness (log ratio)” value was at most -4.2.

With C38U U55A, the “polymerase ribozyme fitness (log ratio)” value was -0.159.

C38U A73U C93U A107U G117U: the “polymerase ribozyme fitness (log ratio)” value is at most -4.2.

In the case of C38U A52G G70U C85U G117U, the “polymerase ribozyme fitness (log ratio)” value was -3.27.

As for A37G G48C A52C U56A C79A U104A U109A C116G C149G G152A, the “polymerase ribozyme fitness (log ratio)” value was at most -4.2.

In the case of C38G G74C C87U, the “polymerase ribozyme fitness (log ratio)” value is at most -4.2.

As to C38U G70A C95A C99U A107U, the “polymerase ribozyme fitness (log ratio)” value is at most -4.2.

On to C38U C57G C75U G86A U148A, for which the “polymerase ribozyme fitness (log ratio)” value was at most -4.2.

Turning to C38U C51U C76A C79A A97U G100A C103G A106G A120G, the “polymerase ribozyme fitness (log ratio)” value is at most -4.2.

Consider C36U A64G G94A A110G, for which the “polymerase ribozyme fitness (log ratio)” value was -4.2.

C38U G58A G86A C93U C96A C131A: the “polymerase ribozyme fitness (log ratio)” value was -2.97.
